The text below walks through data of patent publication US9708383 (Novo Nordisk, dated 2017).

*1 amine or outer side, *2 acyl side, *3 side chain or, on linkers, in order; H or OH if unused. Where no end group is shown, it is not given here. Side-chain parts run from the residue outwards. [ ]: non-standard residue; d: D form. The star is where a group is joined. 8‑(4-carboxyphenoxy)octanoyl = O=C(O)c1ccc(OCCCCCCCC(=O)*)cc1; Decanoyl(10-(4-HOOC-PhO)) = O=C(O)c1ccc(OCCCCCCCCCC(=O)*)cc1; γGlu = O=C(O)[C@H](CCC(=O)[*:2])N[*:1]; C12 diacid = O=C(O)CCCCCCCCCCC(=O)*; 13‑carboxytridecanoyl = C14 diacid; AEEA = NCCOCCOCC(=O)O; Aib = CC(C)(N)C(=O)O A value given as a limit tells only on which side of the number the result lay.

The target in test [1] is T1, human GLP-1 receptor (human, UniProt P43220 24-463).
T1 construct: whole, on cells; Used as purified membranes of the transfected hamster cells, not whole cells; also called hGLP-1
Description: SPA, 2.0% vs 0.005% HSA. As to the method: (§1) A shift in the binding affinity, $IC50$, is an indication that the derivative in question binds to albumin, and thereby a prediction of a potential protracted pharmacokinetic profile of the derivative in question in animal models.
(§2) 25 ul (microliter) of test compounds are added to Optiplate. HSA ("high albumin" experiment containing 2% HSA), or buffer ("low albumin" experiment containing 0.005% HSA), was added (50 ul). 5-10 µg protein/sample was added (50 ul) corresponding to 0.1-0.2 mg protein/ml (to be preferably optimised for each membrane preparation). SPA-particles (Wheatgerm agglutinin SPA beads, Perkin Elmer, #RPNQ0001) were added in an amount of 0.5 mg/well (50 ul). […] The plates were sealed with PlateSealer and incubated for 120 minutes at 30° C. while shaking. The plates were centrifuged (1500 rpm, 10 min) and counted in Topcounter.

Test [2] deals with T1, human GLP-1 receptor. Description: SPA, displacement of 125I-GLP-1(7-36)NH2, 0.005% HSA. The protocol:
as §1, §2
In general terms: Displacement assays read how much labelled ligand stays bound in the presence of the test substance.

In the case of H[Aib]EGTFTSDVSK([AEEA-AEEA-γGlu-13‑carboxytridecanoyl])YLEEQAARK([AEEA-AEEA-γGlu-13‑carboxytridecanoyl])FIAHLVRG (ends and bridges not checked) [GLP-1 derivative of Example 9: [Aib8,Lys18,Glu22,Arg26,Lys27,His31,Arg34]-GLP-1-(7-35)-peptide], in test [1], the “ratio IC50 high HSA/IC50 low HSA” value was over 1. In test [2], this molecule registered a half-maximal inhibitory concentration (IC50) of under 1000 nM.
The corresponding values for HAEGTFTSDVSK([AEEA-AEEA-γGlu-13‑carboxytridecanoyl])YLEEQAAREFIAK([AEEA-AEEA-γGlu-13‑carboxytridecanoyl])LVRGRG [GLP-1 derivative of Example 78: [Lys18,Glu22,Arg26,Lys31,Arg34]-GLP-1-(7-37)-peptide] are over 1 and under 1000 nM.
In the same order, the values of HAEGTFTSDVSK([AEEA-AEEA-γGlu-13‑carboxytridecanoyl])YLEEQAAHK([AEEA-AEEA-γGlu-13‑carboxytridecanoyl])FIAWLVRGRG [GLP-1 derivative of Example 60: [Lys18,Glu22,His26,Lys27,Arg34]-GLP-1-(7-37)-peptide] are over 1 and under 1000 nM.
The corresponding values for HAEGTFTSDVSK([γGlu-AEEA-AEEA-13‑carboxytridecanoyl])YLEEQAVREFIAK([γGlu-AEEA-AEEA-13‑carboxytridecanoyl])LVRGRG [GLP-1 derivative of Example 55: [Lys18,Glu22,Val25,Arg26,Lys31,Arg34]-GLP-1-(7-37)-peptide] are over 1 and under 1000 nM.
On to HAEGTFTSDVSK([AEEA-AEEA-γGlu-γGlu-γGlu-13‑carboxytridecanoyl])YLEGQAAREFIAK([AEEA-AEEA-γGlu-γGlu-γGlu-13‑carboxytridecanoyl])LVRGRG [GLP-1 derivative of Example 91: [Lys18,Arg26,Lys31,Arg34]-GLP-1-(7-37)-peptide], for which, in test [1], the “ratio IC50 high HSA/IC50 low HSA” value was over 1. The molecule further displayed an IC50 in test [2] of under 1000 nM.
The corresponding values for HAEGTFTSDVSK([AEEA-AEEA-γGlu-13‑carboxytridecanoyl])YLEGQAVREFIAK([AEEA-AEEA-γGlu-13‑carboxytridecanoyl])LVRGRG [GLP-1 derivative of Example 77: [Lys18,Val25,Arg26,Lys31,Arg34]-GLP-1-(7-37)-peptide] are over 1 and under 1000 nM.
In the same order, the values of HAEGTFTSDVSK([AEEA-AEEA-γGlu-13‑carboxytridecanoyl])YLEEQAAK([AEEA-AEEA-γGlu-13‑carboxytridecanoyl])EFIAWLVQGRG [GLP-1 derivative of Example 54: [Lys18,Glu22,Gln34]-GLP-1-(7-37)-peptide] are over 1 and under 1000 nM.
The corresponding values for HAEGTFTSDVSK([AEEA-AEEA-γGlu-13‑carboxytridecanoyl])YLEEQAVREFIAK([AEEA-AEEA-γGlu-13‑carboxytridecanoyl])LVRGRG [GLP-1 derivative of Example 43: [Lys18,Glu22,Val25,Arg26,Lys31,Arg34]-GLP-1-(7-37)-peptide] are over 1 and under 1000 nM.
As to HAEGTFTSDVSK([AEEA-AEEA-γGlu-13‑carboxytridecanoyl])YLEEQAAHK([AEEA-AEEA-γGlu-13‑carboxytridecanoyl])FIAWLVQGRG [GLP-1 derivative of Example 61: [Lys18,Glu22,His26,Lys27,Gln34]-GLP-1-(7-37)-peptide], the “ratio IC50 high HSA/IC50 low HSA” value in test [1] was over 1. In test [2], this molecule yielded an IC50 of under 1000 nM.
In the same order, the values of HAEGTFTSDVSK([AEEA-AEEA-γGlu-13‑carboxytridecanoyl])YLEGQAAHEFIAK([AEEA-AEEA-γGlu-13‑carboxytridecanoyl])LVRGRG (position 26 of the entry may not be His) [GLP-1 derivative of Example 72: [Lys18,His26,Lys31,Arg34]-GLP-1-(7-37)-peptide] are over 1 and under 1000 nM.
The corresponding values for HAEGTFTSDVSK([AEEA-AEEA-γGlu-13‑carboxytridecanoyl])YLEEEAVRK([AEEA-AEEA-γGlu-13‑carboxytridecanoyl])FIAWLVRGRG [GLP-1 derivative of Example 57: [Lys18,Glu22,Glu23,Val25,Arg26,Lys27,Arg34]-GLP-1-(7-37)-peptide] are over 1 and under 1000 nM.
As for HAEGTFTSDVSK([AEEA-AEEA-γGlu-8‑(4-carboxyphenoxy)octanoyl])YLEEQAAK([AEEA-AEEA-γGlu-8‑(4-carboxyphenoxy)octanoyl])EFIAWLVQGRG [GLP-1 derivative of Example 89: [Lys18,Glu22,Gln34]-GLP-1-(7-37)-peptide], the “ratio IC50 high HSA/IC50 low HSA” value in test [1] was over 1. The same molecule showed an IC50 in test [2] of under 1000 nM.
As to HAEGTFTSDVSK([AEEA-AEEA-γGlu-Decanoyl(10-(4-HOOC-PhO))])YLEGQAAHK([AEEA-AEEA-γGlu-Decanoyl(10-(4-HOOC-PhO))])FIAWLVQGRG [GLP-1 derivative of Example 67: [Lys18,His26,Lys27,Gln34]-GLP-1-(7-37)-peptide], in test [1], the “ratio IC50 high HSA/IC50 low HSA” value was over 1. This molecule showed an IC50 in test [2] of under 1000 nM.
The corresponding values for HAEGTFTSDVSK([AEEA-AEEA-γGlu-Decanoyl(10-(4-HOOC-PhO))])YLEEQAAK([AEEA-AEEA-γGlu-Decanoyl(10-(4-HOOC-PhO))])EFIAWLVQGRG [GLP-1 derivative of Example 38: [Lys18,Glu22,Gln34]-GLP-1-(7-37)-peptide] are over 1 and under 1000 nM.
The corresponding values for HAEGTFTSDVSK([AEEA-AEEA-γGlu-13‑carboxytridecanoyl])YLEEQAVRK([AEEA-AEEA-γGlu-13‑carboxytridecanoyl])FIAWLVQGRG [GLP-1 derivative of Example 48: [Lys18,Glu22,Val25,Arg26,Lys27,Gln34]-GLP-1-(7-37)-peptide] are over 1 and under 1000 nM.
The corresponding values for HAEGTFTSDVSK([AEEA-AEEA-γGlu-C12 diacid])YLEEQAAK([AEEA-AEEA-γGlu-C12 diacid])EFIAWLVQGRG [GLP-1 derivative of Example 40: [Lys18,Glu22,Gln34]-GLP-1-(7-37)-peptide] are over 1 and under 1000 nM.

B1: GLP-1 derivative of Example 47: [Lys18,Glu22,Val25,Arg26,Lys27,His31,Arg34]-GLP-1-(7-37)-peptide (peptide)
peptide: HAEGTFTSDVSK([AEEA-AEEA-γGlu-13‑carboxytridecanoyl])YLEEQAVRKFIAHLVRGRG
notes: Printed name omits the second acylation; printed masses fit a double-acylated compound
As to B1, the “ratio IC50 high HSA/IC50 low HSA” value in test [1] was over 1. In test [2], the half-inhibitory concentration (IC50) was under 1000 nM.
In the same order, the values of HAEGTFTSDVSK([AEEA-AEEA-γGlu-13‑carboxytridecanoyl])YLEEQAVRK([AEEA-AEEA-γGlu-13‑carboxytridecanoyl])FIAWLVRGRG [GLP-1 derivative of Example 46: [Lys18,Glu22,Val25,Arg26,Lys27,Arg34]-GLP-1-(7-37)-peptide] are over 1 and under 1000 nM.
In the same order, the values of HAEGTFTSDVSK([AEEA-AEEA-γGlu-Decanoyl(10-(4-HOOC-PhO))])YLEEQAVRK([AEEA-AEEA-γGlu-Decanoyl(10-(4-HOOC-PhO))])FIAWLVQGRG [GLP-1 derivative of Example 42: [Lys18,Glu22,Val25,Arg26,Lys27,Gln34]-GLP-1-(7-37)-peptide] are over 1 and under 1000 nM.
In the same order, the values of HAEGTFTSDVSK([AEEA-AEEA-γGlu-Decanoyl(10-(4-HOOC-PhO))])YLEEQAVREFIAK([AEEA-AEEA-γGlu-Decanoyl(10-(4-HOOC-PhO))])LVRGRG [GLP-1 derivative of Example 75: [Lys18,Glu22,Val25,Arg26,Lys31,Arg34]-GLP-1-(7-37)-peptide] are over 1 and under 1000 nM.
As to HAEGTFTSDVSK([AEEA-AEEA-γGlu-13‑carboxytridecanoyl])YLEGQAAREFIAK([AEEA-AEEA-γGlu-13‑carboxytridecanoyl])LVRGRG [GLP-1 derivative of Example 70: [Lys18,Arg26,Lys31,Arg34]-GLP-1-(7-37)-peptide], the “ratio IC50 high HSA/IC50 low HSA” value in test [1] is over 1. The same molecule yielded an IC50 in test [2] of under 1000 nM.
HAEGTFTSDVSK([γGlu-AEEA-AEEA-13‑carboxytridecanoyl])YLEEQAVREFIAK([γGlu-AEEA-AEEA-13‑carboxytridecanoyl])LVQGRG [GLP-1 derivative of Example 56: [Lys18,Glu22,Val25,Arg26,Lys31,Gln34]-GLP-1-(7-37)-peptide]: the “ratio IC50 high HSA/IC50 low HSA” value in test [1] was over 1. The molecule also came in with an IC50 in test [2] of under 1000 nM.
For HAEGTFTSDVSK([AEEA-AEEA-γGlu-Decanoyl(10-(4-HOOC-PhO))])YLEEQAAHK([AEEA-AEEA-γGlu-Decanoyl(10-(4-HOOC-PhO))])FIAWLVQGRG [GLP-1 derivative of Example 35: [Lys18,Glu22,His26,Lys27,Gln34]-GLP-1-(7-37)-peptide], the “ratio IC50 high HSA/IC50 low HSA” value in test [1] was over 1. The same molecule displayed an IC50 in test [2] of under 1000 nM.
The corresponding values for HAEGTFTSDVSK([AEEA-AEEA-γGlu-13‑carboxytridecanoyl])YLEEQAVREFIAK([AEEA-AEEA-γGlu-13‑carboxytridecanoyl])LVQGRG [GLP-1 derivative of Example 44: [Lys18,Glu22,Val25,Arg26,Lys31,Gln34]-GLP-1-(7-37)-peptide] are over 1 and under 1000 nM.
On to HAEGTFTSDVSK([AEEA-AEEA-γGlu-13‑carboxytridecanoyl])YLEEEAVRK([AEEA-AEEA-γGlu-13‑carboxytridecanoyl])FIAWLVQGRG [GLP-1 derivative of Example 58: [Lys18,Glu22,Glu23,Val25,Arg26,Lys27,Gln34]-GLP-1-(7-37)-peptide], for which the “ratio IC50 high HSA/IC50 low HSA” value in test [1] was over 1. Also, the IC50 in test [2] is under 1000 nM.
The corresponding values for HAEGTFTSDVSK([AEEA-AEEA-γGlu-13‑carboxytridecanoyl])YLEEQAAHK([AEEA-AEEA-γGlu-13‑carboxytridecanoyl])FIAHLVRGRG [GLP-1 derivative of Example 62: [Lys18,Glu22,His26,Lys27,His31,Arg34]-GLP-1-(7-37)-peptide] are over 1 and under 1000 nM.
In the same order, the values of HAEGTFTSDVSK([AEEA-AEEA-γGlu-Decanoyl(10-(4-HOOC-PhO))])YLEGQAAK([AEEA-AEEA-γGlu-Decanoyl(10-(4-HOOC-PhO))])EFIAWLVQGRG [GLP-1 derivative of Example 34: [Lys18,Gln34]-GLP-1-(7-37)-peptide] are over 1 and under 1000 nM.

The IC50 is the concentration that inhibits the measured activity by half.
